This data set in a line: yeast display, Sf9 membrane polyspecificity reagent, FACS + sequencing; frameworks hold sequencing errors. A digest of the protocol:
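In a synthetic yeast display library (Saccharomyces cerevisiae BJ5465), nanobody expression was induced with galactose for 36–48 hours. FACS gates were set low and high (top ~1%) using anti-HA fluorescence for expression and streptavidin fluorescence for binding of the Sf9 membrane reagent. Each polyreactivity label is drawn from the gate of origin.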
In the case of “QVQLVESGGGLVHAGGSLRLSCAASGRTFAPYTMGWYRPAPGKERELVASISTGGSTYYADSVKGRFTISRYNAKNTVYLQMNSLKPEDTAVYYCAATGWAYGYGYGYWGQGTQVTVSS”, the “polyreactivity (PSR sort gate)” value is given as “low polyreactivity”.

Consider “QVQLVESGGGLVQAGGSLRLSCAASGRSFGLYVMGWYRQAPGKERELVAAITGVGSTKYADSVKGRFTISRDNAKNTVYLQMNSLKPEDTEVYYCAKRYLYDRRHAEYWAANDYWGQGTQVTVSS”, for which the “polyreactivity (PSR sort gate)” value is “low polyreactivity”. To “QVQLVESGGGLVQAGGSLRLSCAASGRTLEQYAMGWYRQAPGKERELVAAINKSGARTYYADSVKGRFTISRDNAKNSVYLQMNSQKPEDTAVYYCNTVGPSYLFDYWGQGTQVTVSS” belongs “high polyreactivity”; to “QVQLVESGGGLVQAGGSLRLSCAASGIIFFYYAMGWYRQAPGKERELVAANSSDGSTYYADSVKGRFTISRDNAKNTVYLQMNSLKPEDTAVYYCAVDHYSARLLARYDYWGQGTQVTVSS”, “low polyreactivity”. Turning to “QVQLVESGGRIVQAGRSLRLTCAASGRTFRNYAMGWYRQAPGKEREFVAAITSRSSRTYYADSVKGRFTISRDNEKNTVYLQMNSLIPEDTAVYYCARGSELGYYAWVYYWGQGTQVTVSS”, the “polyreactivity (PSR sort gate)” value is on record as “high polyreactivity”. For the sequence “QVQLVESGGGLVQAGGSLRLSCAASGRIFDDNAMGWYRQAPGKERELVADINNGTSTNYADSVKGRFTISRDNAKNTVYLQMNSLKPEDTAVYYCAADDYIYYRILGDSFVYKAYGYWGQGTQVTVSS”, the “polyreactivity (PSR sort gate)” value was “low polyreactivity”. In the case of “QVQLVESGGGLVQAGGSLRLSSAASGYIFGANGMGWYRQAPGKERELVATITSGGRTYYADSVKGRFTISRDNAKNNVYLQMNSLKPEDTAVYYCAAKLQYRWTWGYYYWGQGTQVTVSS” it was “high polyreactivity”; in that of “QVQLVESGGGLVQAGGSLRLSCAASGSTFQQYAMGWYRQAPGKERELVAAISWRGGSTYYADSVKGRFTISRDNAKNTVYFQMNSLKPEDTAFYYCAARYQPGGFSRYDYYYWGQGTQVTVSS”, “high polyreactivity”. In the case of “QVQLVESGGGLVQAGGSLRLSCAASGSIFGANTMGWYRQAPGKERELVAGITSGARTYYADSVKGRFTISRDNAKNTVYLQMNSLKPEDTAVYYCAAKYAWRRYGYWGQGTQVTVSS” it was “high polyreactivity”; in that of “QVQLVESGGGLVQAGGSLRLSCAASGITFQANAMGWYRQAPGKERELVAAISSSDGSTYYADSVKGRFTISRDNAKNTVYVQMNSLKPEDTAVYYCAADGVVYGWPEYEYWGQGTQVTVSS”, “low polyreactivity”; in that of “QVQLVESGGGLVQAGGSLRLSCAASGFIFISNAMGWYRQAPGKERELVARISDTDRTHYADSVKGRFTISRDNAKNTVYLQMNSLKPEDTAVYYCATDQSLLDKVYYDVQYDYWGQGTQVTVSS”, “low polyreactivity”. In the case of “QVQLVESGGGLVQAGGSLRLSCAASGSIFVPNAMGWYRQAPGNERELVADLTRRGGSTYYADSVKGRFTISRDNAKNTVYLQMNSLKPEDTAVYYCNATYLTRSTRLSDFDYWGQGTQVTVSS” it was “high polyreactivity”; in that of “QVQLVESGGGLVQAGGSLRLTCAASGSTFAGNAMGWYRQATGKERELVAAIDSSTGSTYYADSVKGRFTISRDNAKNTVYLQMNSLKPEDSAVYYCNKTSFLVKLDYWGQGTQVTVSS”, “low polyreactivity”; in that of “QVQLVESGAGLVQAGGRLRLSCAASGFTFRAYDMGWSRQAPAKERELVAAINISGGSTYYADSVKGRFTISRDNAKNTVYLQMNSLKPVDTAVYYCAAVPWVGTLYPRVGYWGQGTQGTVSS”, “low polyreactivity”.

For the sequence “QVQLVESGGGLVQAGGSLRLSCAASGNTFANYAMGWYRQAPGKERELVAAITSNGGSTYYADSVKGRFTISRDNAKNTVYLQMNSLKPEDTAVYYCAADAAYYSGYDYWGQGTQVTVSS”, the “polyreactivity (PSR sort gate)” value was “low polyreactivity”. As to “QVQLVESGGGLVQAGGSLRLSCAASGRIFDIYAMGWYRQAPGKERELVAGITSVGSTNYADSVKGRFTISRDNAKNTVYLQMNSLKPEDTAFYYCAADTSVHSEVDYWGQGTQGTVSS”, the “polyreactivity (PSR sort gate)” value is reported as “low polyreactivity”.
